Experimental data taken from article PMC6946681, “The gastrointestinal pathogen Campylobacter jejuni metabolizes sugars with potential help from commensal Bacteroides vulgatus” (Communications Biology, 2020).

Legend:
[1] = target: Campylobacter jejuni FucX (Cj0485), C-terminally six-histidine tagged (Campylobacter jejuni NCTC11168); test: crystal structure; apo FucX, space group C222(1), two monomers in the asymmetric unit, tetramer generated by the crystallographic lattice; crystals grown at 18 °C in 3.4 M 1,6-hexanediol, 0.1 M Tris pH 8.5, 0.2 M MgCl2; 1.60 Å
[2] = target: Campylobacter jejuni FucX (Cj0485), C-terminally six-histidine tagged (Campylobacter jejuni NCTC11168); test: crystal structure; FucX pre-incubated with excess NADP+, space group P1, four monomers in the asymmetric unit; 23-26% PEG 4000, 0.08 M Tris pH 8.5, 0.15 M MgCl2, 20% glycerol; 2.15 Å
[3] = tested on: OC1OC[C@@H](O)[C@@H](O)[C@@H]1O; test: purified protein; conditions: NADP+ in excess, 50 mM Tris-HCl pH 7.5, 1 mM Mg2+, room temperature
[4] = tested on: C[C@@H]1OC(O)[C@@H](O)[C@H](O)[C@@H]1O; test: purified protein; conditions: NADP+ in excess, 50 mM Tris-HCl pH 7.5, 1 mM Mg2+, room temperature
[5] = tested on: NC(=O)c1ccc[n+]([C@@H]2O[C@H](COP(=O)(O)OP(=O)(O)OC[C@H]3O[C@@H](n4cnc5c(N)ncnc54)[C@H](OP(=O)(O)O)[C@@H]3O)[C@@H](O)[C@H]2O)c1; test: purified protein; conditions: L-fucose in excess, 50 mM Tris-HCl pH 7.5, 1 mM Mg2+, room temperature, varied: cofactor
[6] = tested on: NC(=O)c1ccc[n+]([C@@H]2O[C@H](COP(=O)(O)OP(=O)(O)OC[C@H]3O[C@@H](n4cnc5c(N)ncnc54)[C@H](O)[C@@H]3O)[C@@H](O)[C@H]2O)c1; test: purified protein; conditions: L-fucose in excess, 50 mM Tris-HCl pH 7.5, 1 mM Mg2+, room temperature, varied: cofactor

stoichiometry N [1] | stoichiometry N [2] | Substance | Km [3] [µM] | kcat [3] [s⁻¹] | Km [4] [µM] | kcat [4] [s⁻¹] | Km [5] [µM] | kcat [5] [s⁻¹] | Km [6] [µM] | kcat [6] [s⁻¹]
4 | 4 | Campylobacter jejuni FucX (Cj0485), C-terminally six-histidine tagged (enzyme) |  |  |  |  |  |  |  | 
 |  | FucX (Cj0485) (Campylobacter jejuni subsp. jejuni NCTC 11168 = ATCC 700819) | 672.2 ± 82.8 | 18.9 ± 0.8 | 233.8 ± 26.2 | 26.3 ± 0.7 | 9.9 ± 1.9 | 16.5 ± 0.7 | 6050 ± 1080 | 20.5 ± 2.1
